Fewer inactive variants are shown than the library holds.
What was measured:
biotinyl-Met-oxazolone = assay: self-aminoacylation, catalytic enhancement (BMO) (fold over background); higher = more active; k-Seq, kA / k0A0; sequences stand for … in GGGAAUGGAUCCACAUCUACGAAUUC…UUCACUGCAGACUUGACGAAGCUG
Method in brief: (§1)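 Mutagenized RNA pools with a 21-nt variable region (0.43 μM) were reacted with each biotinyl-aminoacyl-oxazolone at 2–1250 μM for 90 minutes at room temperature, in 50 μL HEPES/NaCl/KCl/MgCl2/CaCl2 buffer containing 5% acetonitrile at pH 6.9–7.0. RNA captured on streptavidin was quantified by triplicate qPCR and by Illumina sequencing. The fraction reacted for each sequence was fit to a pseudo-first-order model with bootstrapping, and catalytic enhancement is the median kA divided by the uncatalyzed rate, taken as the low-activity peak of a bimodal Gaussian fit.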

biotinyl-Trp-oxazolone = assay: self-aminoacylation, catalytic enhancement (BWO) (fold over background); higher = more active; k-Seq, kA / k0A0; sequences stand for … in GGGAAUGGAUCCACAUCUACGAAUUC…UUCACUGCAGACUUGACGAAGCUG
Method in brief: as §1

biotinyl-Leu-oxazolone = assay: self-aminoacylation, catalytic enhancement (BLO) (fold over background); higher = more active; k-Seq, kA / k0A0; sequences stand for … in GGGAAUGGAUCCACAUCUACGAAUUC…UUCACUGCAGACUUGACGAAGCUG
Method in brief: as §1

biotinyl-Ile-oxazolone = assay: self-aminoacylation, catalytic enhancement (BIO) (fold over background); higher = more active; k-Seq, kA / k0A0; sequences stand for … in GGGAAUGGAUCCACAUCUACGAAUUC…UUCACUGCAGACUUGACGAAGCUG
Method in brief: as §1

biotinyl-Phe-oxazolone = assay: self-aminoacylation, catalytic enhancement (BFO) (fold over background); higher = more active; k-Seq, kA / k0A0; sequences stand for … in GGGAAUGGAUCCACAUCUACGAAUUC…UUCACUGCAGACUUGACGAAGCUG
Method in brief: as §1

biotinyl-Val-oxazolone = assay: self-aminoacylation, catalytic enhancement (BVO) (fold over background); higher = more active; k-Seq, kA / k0A0; sequences stand for … in GGGAAUGGAUCCACAUCUACGAAUUC…UUCACUGCAGACUUGACGAAGCUG
Method in brief: as §1

Sequence | self-aminoacylation (biotinyl-Met-oxazolone) | self-aminoacylation (biotinyl-Trp-oxazolone) | self-aminoacylation (biotinyl-Leu-oxazolone) | self-aminoacylation (biotinyl-Ile-oxazolone) | self-aminoacylation (biotinyl-Phe-oxazolone) | self-aminoacylation (biotinyl-Val-oxazolone)
AUUAGCGUGGUCAUCGAGUGA [Fam2.1 aminoacylation ribozyme variant] | 3.55 | 5 | 4.67 | 2.8 | 13.5 | 3.1
AUUAUCAUGGUCAUCGAGUGA [Fam2.1 aminoacylation ribozyme variant] | 6.24 | 8.2 | 6.75 | 3.56 | 10.8 | 3.44
AUUAUCCAGGUCAUCGAGUGA [Fam2.1 aminoacylation ribozyme variant] | 6.52 | 7.93 | 6.32 | 3.13 | 30.3 | 3.41
AUUAUCCUGCUCAUCGAGUGA [Fam2.1 aminoacylation ribozyme variant] | 2.69 | 3.08 | 2.77 | 1.76 | 2.88 | 1.8
AUUAUCCUGGUCACCGAGUGA [Fam2.1 aminoacylation ribozyme variant] | 7.82 | 8.39 | 8.43 | 3.11 | 54 | 3.84
AUUAUCCUGGUCAUCGAGUGU [Fam2.1 aminoacylation ribozyme variant] | 11.1 | 9.45 | 10.2 | 4.25 | 15.3 | 4.73
AUUAUCCUGGUCCUCGAGUGA [Fam2.1 aminoacylation ribozyme variant] | 4.56 | 6.54 | 5.19 | 2.4 | 21.9 | 2.33
AUUAUCCUGGUCUUCGAGUGA [Fam2.1 aminoacylation ribozyme variant] | 5.8 | 7.67 | 5.95 | 3.26 | 37.6 | 2.93
AUUAUCCUGGUUAUCGAGUGA [Fam2.1 aminoacylation ribozyme variant] | 12.2 | 14.7 | 13.5 | 5.55 | 71.3 | 4.88
AUUAUGCUGGUCAUCGAGUGA [Fam2.1 aminoacylation ribozyme variant] | 4.1 | 5.2 | 4.22 | 3.15 | 14.9 | 2.69
AUUCAACUAGAUCAUCGGGUG [Fam2.2 aminoacylation ribozyme variant] | 2.44 | 2.93 | 2.53 | 1.82 | 9.72 | 1.77
AUUCAACUAGCUCAUCGGGUG [Fam2.2 aminoacylation ribozyme variant] | 1.74 | 1.82 | 2 | 2.04 | 15 | 2.45
AUUCAACUAGGCCAUCGGGUG [Fam2.2 aminoacylation ribozyme variant] | 3.66 | 3.9 | 3.74 | 2.61 | 21.5 | 2.31
AUUCAACUAGGUCAUCAGGUG [Fam2.2 aminoacylation ribozyme variant] | 1.29 | 1.33 | 1.54 | 1.28 | 1.43 | 1.22
AUUCAACUAGGUCAUCGGGCG [Fam2.2 aminoacylation ribozyme variant] | 2.73 | 2.46 | 3.67 | 2.48 | 5.35 | 2.36
AUUCAACUAGGUCAUCGGGGG [Fam2.2 aminoacylation ribozyme variant] | 1.59 | 2.56 | 1.86 | 1.75 | 0.813 | 1.66
AUUCAACUAGGUCAUCGGGUG [Fam2.2 aminoacylation ribozyme variant] | 5.65 | 5.46 | 7.19 | 3.6 | 40.6 | 3.47
AUUCAACUAGGUCAUGGGGUG [Fam2.2 aminoacylation ribozyme variant] | 4.28 | 4.16 | 5.63 | 2.96 | 27.7 | 3.16
AUUCAACUGGGUCAUCGGGUG [Fam2.2 aminoacylation ribozyme variant] | 5.25 | 5.74 | 7.37 | 3.89 | 39.5 | 3.96
AUUCAAGUAGGUCAUCGGGUG [Fam2.2 aminoacylation ribozyme variant] | 5.19 | 5.33 | 7.04 | 3.73 | 36.6 | 3.43
AUUCACAGAGGUCAUCGGGUG [Fam2.2 aminoacylation ribozyme variant] | 6.99 | 6.32 | 7.94 | 4.48 | 45.9 | 5.02
AUUCACAUAGGUAAUCGGGUG [Fam2.2 aminoacylation ribozyme variant] | 4.85 | 4.8 | 5.2 | 2.65 | 34 | 2.6
AUUCACAUAGGUCACCGGGUG [Fam2.2 aminoacylation ribozyme variant] | 5.7 | 5.42 | 7.78 | 4.8 | 42.3 | 4.6
AUUCACAUAGGUCAUCCGGUG [Fam2.2 aminoacylation ribozyme variant] | 7.79 | 7.74 | 9.85 | 5.32 | 55.9 | 5.53
AUUCACAUAGGUCAUCGCGUG [Fam2.2 aminoacylation ribozyme variant] | 14 | 12.1 | 17.6 | 7.23 | 108 | 7.84
AUUCACAUAGGUCAUCGGGUC [Fam2.2 aminoacylation ribozyme variant] | 1.39 | 1.49 | 1.34 | 1.51 | 0.659 | 1.65

Sequence | self-aminoacylation (biotinyl-Met-oxazolone) | self-aminoacylation (biotinyl-Trp-oxazolone) | self-aminoacylation (biotinyl-Leu-oxazolone) | self-aminoacylation (biotinyl-Ile-oxazolone) | self-aminoacylation (biotinyl-Phe-oxazolone) | self-aminoacylation (biotinyl-Val-oxazolone)
AUUCACAUAGGUCAUCGGGUU [Fam2.2 aminoacylation ribozyme variant] | 2.13 | 1.97 | 2.22 | 1.9 | 8.48 | 1.76
AUUCACAUAGGUCAUCGUGUG [Fam2.2 aminoacylation ribozyme variant] | 0.835 | 0.867 | 0.942 | 0.867 | 2.09 | 0.841
AUUCACAUAGGUCCUCGGGUG [Fam2.2 aminoacylation ribozyme variant] | 7.55 | 7.63 | 9.43 | 4.33 | 51.3 | 4.71
AUUCACAUAGGUUAUCGGGUG [Fam2.2 aminoacylation ribozyme variant] | 5.32 | 5.37 | 6.69 | 3.23 | 40.2 | 3.67
AUUCACCAACGUCAUCGGGUG [Fam2.2 aminoacylation ribozyme variant] | 8.41 | 7.38 | 11.8 | 5.28 | 74 | 5.26
AUUCACCAAGGUCAUCAGGUG [Fam2.2 aminoacylation ribozyme variant] | 2.1 | 1.79 | 2.25 | 1.6 | 3.44 | 1.37
AUUCACCAAGGUCAUCUGGUG [Fam2.2 aminoacylation ribozyme variant] | 3.53 | 3.52 | 5.5 | 2.38 | 28 | 2.29
AUUCACCAAGGUCCUCGGGUG [Fam2.2 aminoacylation ribozyme variant] | 8.8 | 8.35 | 11 | 4.66 | 76.6 | 5.39
AUUCACCAUGGUCAUCGGGUG [Fam2.2 aminoacylation ribozyme variant] | 10.3 | 10.5 | 15.6 | 6.21 | 69.7 | 6.37
AUUCACCCAGGACAUCGGGUG [Fam2.2 aminoacylation ribozyme variant] | 2.8 | 3.3 | 2.83 | 2.97 | 30.2 | 3.27
AUUCACCCAGGUCAUCAGGUG [Fam2.2 aminoacylation ribozyme variant] | 1 | 0.804 | 1.08 | 0.991 | 0.632 | 1.01
AUUCACCCAGGUCAUCGGGAG [Fam2.2 aminoacylation ribozyme variant] | 1.28 | 1.47 | 1.28 | 1.22 | 0.732 | 1.48
AUUCACCCAGGUCAUCGGGUA [Fam2.2 aminoacylation ribozyme variant] | 2.51 | 2.93 | 2.76 | 2.25 | 12.7 | 2.27
AUUCACCCAGGUCAUGGGGUG [Fam2.2 aminoacylation ribozyme variant] | 10.2 | 8.21 | 13.8 | 5.18 | 67.1 | 5.23
AUUCACCCAGGUGAUCGGGUG [Fam2.2 aminoacylation ribozyme variant] | 4.45 | 4.5 | 3.44 | 3.64 | 25.7 | 3.59
AUUCACCCAGUUCAUCGGGUG [Fam2.2 aminoacylation ribozyme variant] | 2.52 | 2.33 | 2.6 | 2.48 | 10.8 | 2.72
AUUCACCCGGGUCAUCGGGUG [Fam2.2 aminoacylation ribozyme variant] | 5.16 | 6.14 | 6.18 | 4.1 | 42.6 | 4.44
AUUCACCGAGGUCAACGGGUG [Fam2.2 aminoacylation ribozyme variant] | 5.75 | 5.14 | 8.52 | 3.52 | 36.9 | 3.27
AUUCACCGAGGUCAUCGGCUG [Fam2.2 aminoacylation ribozyme variant] | 2.26 | 1.93 | 2.38 | 2.29 | 12.4 | 2.26
AUUCACCGAGGUCAUCGGGCG [Fam2.2 aminoacylation ribozyme variant] | 3.34 | 2.96 | 3.66 | 3.19 | 24.4 | 3.86
AUUCACCGAGGUCAUUGGGUG [Fam2.2 aminoacylation ribozyme variant] | 6.99 | 5.88 | 8.02 | 3.83 | 42.6 | 3.88
AUUCACCGAGGUCCUCGGGUG [Fam2.2 aminoacylation ribozyme variant] | 11.3 | 9.2 | 14.6 | 6.76 | 84.6 | 6.63
AUUCACCGAGGUCUUCGGGUG [Fam2.2 aminoacylation ribozyme variant] | 4.94 | 6.52 | 7.58 | 3.97 | 40.7 | 4.69
AUUCACCUAAAUCAUCGGGUG [Fam2.2 aminoacylation ribozyme variant] | 5.3 | 5.55 | 6.91 | 3.11 | 34.6 | 2.56
AUUCACCUAAGACAUCGGGUG [Fam2.2 aminoacylation ribozyme variant] | 4.49 | 4.54 | 5.92 | 3.05 | 33.4 | 3.13

From the supplement of paper PMC9233669
